The target of the assay is Slit D2 (the Robo-binding domain of Slit) (Drosophila). As to the kind of experiment: SPR. In general terms: In SPR one partner is held on a chip, and binding of the other changes the refractive index at the surface.

pKd: −log10 of the molar value.

One may read the pKd as −log10 of the Kd, conventionally taken in molar units. High values mean a small Kd, low ones a large Kd. The substance “Robo1 Ig1-5 fragment (Ig domain-containing portion of the Robo ectodomain) (domain or fragment)” showed a pKd of 6.63.

In turn, “Robo2 Ig1-5 fragment (Ig domain-containing portion of the Robo2 ectodomain) (domain or fragment)” showed a pKd of 5.96.

The values above are taken from publication PMC4078746.
